Measurements reported in the DeepSol protein solubility set.

Test: soluble on expression in E. coli; label from the status in PepcDB or PDB records

Row | Sequence | soluble on expression in E. coli
1 | MPNMGIEKLYVSQQLTDSAAGMTFTKPQYYKYVQELSLKPKVNSASAYAENRKVDQDTQFDSCDVSINLFQMTSSQRAFMLGQSLAGGGGAIGALNDKAPWITLLYKAPIKVDDTIYYRYGVIYKTQFQPPDDDYKTTEGKPDFSQVPKISGSAQPTEWSFKDGKLEKHPWEWHVDTCDPNCPENIDDTWFNSVSIPSLVTYGSLSLSASSPKDGATGISLDTKPSLTFNNPIMNATSILLYNVSDGATVNTTTSSDSSGKIITITPSTNLVANKNYVLVVQDVTDLYGQTLDTQLIRFTTATAASLEHHHHHH | soluble
2 | MPPAKTKPKFPLCRLPSESVTNVLKIMKLSEIFNLSETSLKARSIVELAMQTIPSHLDLQGFPSKNYKLTVENDGQKVQVQFPHATDALTNFKQKLFRICKTFQIKTASVYFSCPVEAHIIELLGFIKKRKVQFQDFSIKGSVTEQNFKFFMTIGAQRFHLDMSETQPVTEVFALLKIQEVVLQNAAISSQMLNKVLKAWKTTSRLKKFRVIKNWKMDTSVVFQGLHVKQKSRSDTKKEYEIDLDGGGKATCCFKFEKGSSTNGFEFIVIN | not soluble
3 | MPPEMEGFLYLKSDGRKSWKKHYFVLRPSGLPPEMEGFLYLKSDGRKSWKKHYFVLRPSGLMYHDRRRTGFRQYETYMKQKQSADWQLDELLEELEALETQLNSSNGGDQLLLGVSGIPASSSRENVKSISTLPPPPPALSYHQTPQQPQLLHHHNNHLGYQNGIHQITSINSAASSCSSPDGDSAFGDSSSTESSNNRCRNSAFSSNDSCRDSLNTPSPTQVSPRNGELNAEEAKAQKIRQALEKMKEAKVTKIFVKFFVEDGEALQLLIDERWTVADTLKQLAEKNHIALMEDHCIVEEYPELYIKRVYEDHEKVVENIQMWVQDSPNKLYFMRRPDKYAFISRPELYLLTPKTSDHMEIPSGDQWTIDVKQKFVSEYFHREPVVYYAPKSKKPTTKDLTCLMNLHSNQVYTGIGWEKKYKSPTPWCISIKLTALQMKRSQFIKYICAEDEMTFKKWLVALRIAKNGAELLENYERACQIRRETLGPASSMSAASSSTAISEVPHSLSHHQRTPSVASSIQLSSHMMNNPTHPLSVNVRNQSPASFSVNSCQQSHPSRTSAKLEIQYDEQPTGTIKRAPLDVLRRVSRASTSSPTIPQEESDSDEEFPAPPPVASVMRMPPPVTPPKPCTPLTSKKAPPPPPKRSDTTKLQSASPMAPAKNDLEAALARRREKMATMEC | not soluble
4 | MPPMHLLKSKVHIAEALNDETTMSLLKKIVSKKCISKISQWKNELSSNLDG | not soluble
5 | MPPVYSQPELSISIAGLRLQRPVGNASGILGWEPREARLVEEGGGGFFVAKSVTYQPRKGYPQPHLYPVAGGIVNAVGLANPGFREASKMLAQTVEEASIPVIASIAGGAPGEWVEMASTLEEAGVSAVELNLSCPHFAGGGLELGQDPAAVASVVSAVASTLRIPVIAKLGYSDRLVDAASKALEAGARGLTLINSMRAMKIDVYAKKPVLGNRVGGLSGKPIHPIAVRAVYEVYGETRADIFAAGGVESWEDAVEFYLAGAKAVQVGAAFITIGPHVLRSIVEGVRRYLWVEGFRSLQDIVGYAHRA | soluble
6 | MPQDMSQFLQVFFEETEEHLATLELLLIGLDLDRPDSETLHGIFRAAHSIKGSSGMFGFDDITAVTHELETLLDRIRCGQMHLRPDMISSFLEARDVLQRLLDAHRSGRPDPGVPLLETVERLRGWLRVPEQEAAEEGFGLFDDAPARETADDDAFGFFDEGPGAPERAAAPEAFGLFDEAPGAPAASEAFGLFDEAPGSPPAEERAFGLFDGAPGSPAAPSAPAQAVAAPARGAVAPVRGDGESGSIRVSVEKIDSLINLVGELVITQAMLGQLGEQLDPSRHERLQHALAQLEHNTRDLQESVMSIRMLPINFIFSRFPRLVRDTATRLGKQVELHLHGEHTELDKSVIEKLSDPLTHIVRNSIDHGIETPAERLAAGKPASGTVKLAASHQGGSVVVEVSDDGRGLSRPRILAKARERNLPVHDGMSDAEVWQLVFMPGFSTAETVTELSGRGVGMDVVKRNIGAMGGRIDIDSAPGMGTRIGIRLPLTLAILDGLIVAVEAVNYVIPLTYIVESLQARSDDVRGLGGEDNAMIRVRGEYLPLFSLHELLRIGGEAPAPEQGIVVILESEGRSFALQVDELVGQQQVVIKSLEQNFRRVEGIAGATIMGDGSVALILDVDALPRLAAREDTADE | not soluble
7 | MPQFLKGVTLENREGDELPAEEHLKGKIIGLYFSASWCPPCRAFTPKLKEFFEEIKKTHPEFEIIFVSRDRNSSDLVTYFKEHQGEWTYIPFGSDKIMSLMQKYEVKTIPAMRIVNDQGEVIVQDARTEIQNKGENVEGLWAEWMALIK | not soluble
8 | MPQILVDADACPVKAEIKQVAKEFQLEVTFVASFNHYSVNTNGENWIFVDTGKESADMRMMNLAKKGDIIVTQDIGLASILLAKGTFVFSNRGELYREEEMSLMLDIRYRHAKERQQGKYSKGPKAMSDQDRSLFKDRLTTFLQNKLEHHHHHH | soluble
9 | MPREYEFAEKILFTEEEIRTRIKEVAKRIADDYKGKGLRPYVNPLVLISVLRGSFMFTADLCRALCDFNVPVRMEFICVSSYGEGLTSSGQVRMLLDTRHSIEGHHVLIVEDIVDTALTLNYLYHMYFTRRPASLKTVVLLDKREGRRVPFSADYVVANIPNAFVIGYGLDYDDTYRELRDIVVLRPEVYAEREAARQKKQRAIGSADTDRDAKREFHSKY | soluble
10 | MPSAMNERTVAELEKLLRYIAANLKQRGREILTNYPITPPQFVALQWLLEEGDLTVGELSNKMYLACSTTTDLVDRMERNGLVARVRDEHDRRVVRIRLLEKGERIIEEVIEKRQRDLANVLESFSDEEIVVFERCLRKLHQEMTKE | soluble
11 | MPSERRPFQTAFLSNRKTVGKLAERVQSRYDGLHKFKHICSAAMALIKEPLDKVKQRNEELEAAEEAAAQEALGREQEAARVSEWEERYKLSRSEFEQFWKGLPQTVQNKLQASQKTWKSGMDKICANNAKAEGKTPNGIKFSELACKTAKTEARLEELHNRKKALIDEMAREADKKELSKRL | not soluble
12 | MPSETLWEIAKAEVEKRGINGSEGDGAEIAEKFVFFIGSKNGGKTTIILRCLDRDEPPKPTLALEYTYGRRAKGHNTPKDIAHFWELGGGTSLLDLISIPITGDTLRTFSLVLVLDLSKPNDLWPTMENLLQATKSHVDKVIMKLGKTNAKAVSEMRQKIWNNMPKDHPQDHELIDPFPVPLVIIGSKYDVFQDFESEKRKVICKTLRFVAHYYGASLMFTSKSEALLLKIRGVINQLAFGIDKSKSICVDQNKPLFITAGLDSFGQIGSPPVPENDIGKLHAHSPMELWKKVYEKLFPPKSINTLKDIKDPARDPQYAENEVDEMRIQKDLELEQYKRSSSKSWKQIELDS | not soluble
13 | MPSFREDALSRIRHDGDFDAVVIGGGINGIAAYRDLALQGLRVLLVERNDFSSGCSAAPSRMIHGGLRYLENGEFGLVAESLRERDALLTLAPHMVQPLPTTIPIFSMFSGLFNAAATFFGSGGKPASRGALAIKAGLTLYDFVTRKNRLLPRHEFRGAGKTLKRWPGLTPDIRYSATYYDAWISQPERLALELLIDTSADAPQSIALNYAELVRNGDEYHIRAEETDETLPIRPRIIVNATGAWIDETIGTLSAGPAAEKQKPTVSGTKGSHLIIANDGLLKALNGHMIFFENADNRVCILFPYLGRVLAGSTDIKVDRPERVRCEPDERDYILDAIRQVFPDITVDHSDIVFSFSGIRPLPRSDAAFTGRISRSHFIHRVAGDPPQLCMIGGKWTTFRAFGEQVSDEVLAFLGRKRLTGTMNRPIGGGRNFPTGAGRLPALLSEQFSIDRRRAQHLALAYGSRAFELMGFCRGRPDDAPLSQKSPITAAEILWLIRCEHVRHLTDLILRRTTLAIAGLIDADLIDAILGVAARELGWTPTRAAVERQQLTQELETFYGVTPAMLQNRCKENALEHHHHHH | soluble
14 | MPSGLEQCAPRCRALLQGESGVQIQGHYELKFEAVREAFAALFEDSQERGAALCIQVGGETVIDLWAGTADKDGAEAWHSDTIANLFSCTKTFTAVTALQLVAEGKLKLDAPVADYWPEFAAAGKAAITLRQLLCHQAGLPAVRELLPAQALYEWQTMVDALAAEQPWWTPGEGHGYAAITYGWLVGELIRRADGRGPGESIVARVARPLGLDFHVGLADEEFYRVAHIARGKGNMGDAAAQRLLQVTMREPDAMSTRAFTNPPSILTSTNKPEWRRMQQPAANGHGNARSLAGFYSGLLDGSLLEADMLEELTREHSLGMDKTLLTQTRFGLGCMLDQPQVANATFGLGARAFGHPGAGGSIGFADPEHDVAFGFVTNTLGPYVLMDPRAQKLVRVLSDCLLEHHHHHH | not soluble
15 | MPSIYITGVDPTIVKIHEIQGTGTASPLVNNVVTIEAIVVGDFQDGDGDISRNLRGFYVQEEDADVDGNVATSEGIFIFENGNFITDVNVGDKVQITGTVDEFFGETQIDTITNITVISSGNTLPTAANITLPTAGTTESQGGTPQPDLEAFEGMLVKFTDTLTITEMFNLDRFNEIKLSQGGRPQQFTQFNDANVAGYGAYREEIGARTITYDDGLSVQNAEISNLDGFGSSFSTASDIRMGDTINNLTGVLSYQWAGNASSGATWRVRSAVDGTNQFTKVNDRPVTPENVGGSLKVTGFNVLNYFKTIDLEHHHHHH | not soluble
16 | MPSKKKKIVVIGRSNLQNLYIHTILLKKLPAEIYLIDEQAKTSVQDFEYASYYHSSATVNTGTFNECRSADLVLFFQEEMSNESFSNEDNLALIKEKVKKMMATGFQGIVLVATAESNIVASLIKHFSGLPANQIITPGTMLATSYFQVEIAKLFKISPKNVHGYIIGESTQDVIPVWSRAFLGGKPILSYLAEEQKRITSDDLQNLTNMITKIPDFPVETKDGCSFRFSTVTVLAELTEVILRDEARVLTVGVEVKEAYGLERPVFVSVPAVVGAEGVRELLELNLSDDEQKELKRITTKTTEKLGLLHNKGGIS | not soluble
17 | MPSTLQGTFHTYRIIRRLGQGAFGEVSLAGVLETGEVVALKRIHIRNTGGIPDVVVREIKALQSVSHPNVVALLDVFPKGQAIYLVQEYCTTDLAALLRRLPAPPPERIAKGLMLQLCRGLEALHAEGIMHRDVKPSNTLLSAASGTAKLADCGLARPLDGGERPAYTHAVATRWYRAPELLYGARAYGPAVDVWALGLVFAELLGLSPLVPGDNDIDQLGRVIATFGSMEPVWLGVRALPDWGKIAFPHCEPLPLGDLLPGAPAAALEFLAAFLRYDPAKRITAACAVRSTYLTATQPL | not soluble
18 | MPTLGFRFRAYTDEQTLRALKAQLKLACKIYNTLRWADIYFYQRDGKGLTQTELRQLALDLRKQDDEYKQLYSQVVQQIADRYYEARQRFFEGLARFPKEKKPHKYYSLVYPQYGWKILHVREIRKGSKKKLITLKLSNLGTFKVIVHRDFPLDKVKRVVVKLTRSERIYITFVVDHEFPKLPNTGKVVAIDVGVEKLLVTSDGEYFPNLRPYEKALWKVKHLHRELSRKKFLSNNWFKAKVKLARAYEYLKNLRTDLYMKLGKWFAEHYDVVVMEGIHAKQLVGKSLRSLRRRLSDVGFGELRGVLKYQLEKYGKKLILVNPAYTSKTCARCGYVKNDLSLSDRVFVCPNCGWIADRDYNASLNILRGSGSERPLVPVELRPLPVLWQGGAMKQEAPSFMRGLEHHHHHH | not soluble
19 | MPTPRRSGRVIVYTGDGKGKTTAALGLALRAVGRGMNVAVLQFLKSPERTYGEQLALERLGVDVRQLGAGFTWTKTPDIHREALKRAWAVAKEYVYSGRYDMIVLDELNNVLAIDRFPVEDIVSVSEVLELIRTRPPSLHLVITGRAARPELMAAADIVTEMKLIKHDYEQGRTAMKGIEF | soluble
20 | MPTVRLADGDLNYSLEGPAGAPVLLLSNSLGTDLGMWDTQIPALTAHFRVLRYDTRGHGASLVTPGPYAIGQLGADVLALLDALELPRVHFCGLSMGGLIGQWLGIHAGERLGRLVLCNTAAKIASDEVWNTRIDTVLKGGEQAMRDLRDASVARWFTAGFAEREPAQVERIVAMLAATSPQGYAANCAAVRDADFREQLGLVQAPTLIVAGSHDAVTTPDNARFMQARIADAQLVEFAAAHLSNVEAGDAFSRRLVDFLL | not soluble
